From PMC7784082 (Cell metabolism, 2019)

Target: TAZ, mouse, expressed from plasmid (HA-TAZ WT) (mouse, UniProt Q9EPK5 1-395)
Assay: co-IP

Chain of TAZ, mouse, expressed from plasmid (HA-TAZ WT) (Q9EPK5 whole entry): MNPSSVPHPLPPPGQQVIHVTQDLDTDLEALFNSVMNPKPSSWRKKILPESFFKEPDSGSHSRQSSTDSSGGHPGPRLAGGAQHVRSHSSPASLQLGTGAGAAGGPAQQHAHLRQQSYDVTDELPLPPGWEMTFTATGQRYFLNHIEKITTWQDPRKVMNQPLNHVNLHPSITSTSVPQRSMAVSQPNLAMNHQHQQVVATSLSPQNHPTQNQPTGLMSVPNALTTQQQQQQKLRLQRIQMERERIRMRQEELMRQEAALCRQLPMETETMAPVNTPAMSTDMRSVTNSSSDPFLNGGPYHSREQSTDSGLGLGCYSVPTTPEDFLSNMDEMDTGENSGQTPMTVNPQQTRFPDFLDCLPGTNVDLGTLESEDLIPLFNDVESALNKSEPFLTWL

fold change of association against WT PPARγ: ~2 fold
B1: PPARγ S112D (phospho-mimic mutant of mouse PPARgamma 2) (natural protein, UniProt P37238-1 1-505, looked up)
chain: MGETLGDSPVDPEHGAFADALPMSTSQEITMVDTEMPFWPTNFGISSVDLSVMEDHSHSFDIKPFTTVDFSSISAPHYEDIPFTRADPMVADYKYDLKLQEYQSAIKVEPADPPYYSEKTQLYNRPHEEPSNSLMAIECRVCGDKASGFHYGVHACEGCKGFFRRTIRLKLIYDRCDLNCRIHKKSRNKCQYCRFQKCLAVGMSHNAIRFGRMPQAEKEKLLAEISSDIDQLNPESADLRALAKHLYDSYIKSFPLTKAKARAILTGKTTDKSPFVIYDMNSLMMGEDKIKFKHITPLQEQSKEVAIRIFQGCQFRSVEAVQEITEYAKNIPGFINLDLNDQVTLLKYGVHEIIYTMLASLMNKDGVLISEGQGFMTREFLKNLRKPFGDFMEPKFEFAVKFNALELDDSDLAIFIAVIILSGDRPGLLNVKPIEDIQDNLLQALELQLKLNHPESSQLFAKVLQKMTDLRQIVTEHVQLLHVIKKTETDMSLHPLLQEIYKDLY
